This note sets out measurements from patent US20020068273A1 (published 2002).

Where no end group is shown, it is not given here.

In one experiment the target is biotin-Vpr52-96 (HIV-1) (UniProt P69726). Put plainly: SPR, Langmuir isotherm, ANT104-116 on biotinylated Vpr52-96.
In experiment [1] the target is T1, adenine nucleotide translocator (ANT), purified native protein (rat, UniProt Q05962 2-298).
T1 construct: mature; Used detergent-solubilized (SPR), reconstituted in liposomes or planar bilayers, or inside mitochondria (pull-down); also called adenine nucleotide translocase; ADP/ATP carrier
T1 sequence: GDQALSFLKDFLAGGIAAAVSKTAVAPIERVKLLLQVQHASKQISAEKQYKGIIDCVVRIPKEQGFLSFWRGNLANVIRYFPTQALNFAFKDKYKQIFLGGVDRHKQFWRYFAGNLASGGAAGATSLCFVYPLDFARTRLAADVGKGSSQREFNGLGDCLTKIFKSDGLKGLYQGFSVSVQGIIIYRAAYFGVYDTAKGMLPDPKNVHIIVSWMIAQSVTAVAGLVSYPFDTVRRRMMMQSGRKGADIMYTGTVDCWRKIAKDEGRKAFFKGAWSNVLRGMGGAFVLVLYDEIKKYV
Briefly: not stated (summary of the inventors' findings).

In experiment [2] the target is T1, adenine nucleotide translocator (ANT), …. Briefly: SPR, ANT over immobilized Vpr52-96.

On to ANT-2-derived peptide ANT104-116, for which the Kd in the experiment with biotin-Vpr52-96 (HIV-1) was found to be 35000 nM.

B1: Vpr protein of HIV-1 (14 Kd; 96 aa) (other)
chain: MEQAPEDQGPQREPHNEWTLELLEELKNEAVRHFPRIWLHGLGQHIYETYGDTWAGVEAIIRILQQLLFIHFRIGCRHSRIGVTRQRRARNGASRS
notes: also called HIV-1 Viral protein R
B1 yielded a Kd in experiment [1] of 1 nM.

B2: biotin-Vpr52-96 (peptide)
peptide: DTWAGVEAIIRILQQLLFIHFRIGCRHSRIGVTRQRRARNGASRS
modifications: also: biotin, position not given here
notes: range 52-96; Synthetic biotinylated peptide, immobilized for SPR and used as bait in the avidin-agarose pull-down; also called biotinylated Vpr52-96; immobilized Vpr C-terminal moiety
B2 yielded a Kd in experiment [2] of 9.7 nM.
